{"source": "paper PMC6534964", "about": "(Journal of the American Chemical Society, 2018)", "binders": {"B1": {"name": "S100A9, subunit of native CP (natural protein, human, UniProt P06702 2-114, looked up)", "chain": "TCKMSQLERNIETIINTFHQYSVKLGHPDTLNQGEFKELVRKDLQNFLKKENKNEKVIEHIMEDLDTNADKQLSFEEFIMLMARLTWASHEKMHEGDEGPGHHHKPGLGEGTP"}}, "key": {"SEC": {"target": "the molecule itself", "experiment": "SEC"}, "[1]": {"target": "B1", "experiment": "cross-linking"}, "cross-linking": {"target": "the molecule itself", "experiment": "cross-linking"}, "[2]": {"target": "T1, S100A9(C3S), subunit of CP-Ser (human, UniProt P06702 2-114, C3S)", "T1 sequence (looked up)": "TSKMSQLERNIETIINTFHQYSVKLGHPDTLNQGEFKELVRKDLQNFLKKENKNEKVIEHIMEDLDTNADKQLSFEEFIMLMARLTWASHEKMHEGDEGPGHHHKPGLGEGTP", "experiment": "anion exchange chromatography"}}, "data": [{"binder": "CP-Ser, S100A8(C42S)/S100A9(C3S) heterodimer of human calprotectin (complex) chain 1: MLTELEKALNSIIDVYHKYSLIKGNFHAVYRDDLKKLLETESPQYIRKKGADVWFKELDINTDGAVNFQEFLILVIKMGVAAHKKSHEESHKE chain 2: TSKMSQLERNIETIINTFHQYSVKLGHPDTLNQGEFKELVRKDLQNFLKKENKNEKVIEHIMEDLDTNADKQLSFEEFIMLMARLTWASHEKMHEGDEGPGHHHKPGLGEGTP", "values": [{"measurement": "binding result", "setting": "SEC", "result": "binds"}]}, {"binder": "CP-Ser M81A variant, S100A8(C42S)/S100A9(C3S)(M81A) (complex, human) chain 1: MLTELEKALNSIIDVYHKYSLIKGNFHAVYRDDLKKLLETESPQYIRKKGADVWFKELDINTDGAVNFQEFLILVIKMGVAAHKKSHEESHKE chain 2: TSKMSQLERNIETIINTFHQYSVKLGHPDTLNQGEFKELVRKDLQNFLKKENKNEKVIEHIMEDLDTNADKQLSFEEFIALMARLTWASHEKMHEGDEGPGHHHKPGLGEGTP", "values": [{"measurement": "binding result", "setting": "SEC", "result": "binds"}]}, {"binder": "S100A8, subunit of native CP (natural protein, human, UniProt P05109 1-93, looked up) MLTELEKALNSIIDVYHKYSLIKGNFHAVYRDDLKKLLETECPQYIRKKGADVWFKELDINTDGAVNFQEFLILVIKMGVAAHKKSHEESHKE", "values": [{"measurement": "binding result", "setting": "[1]", "result": "binds"}]}, {"binder": "B1", "values": [{"measurement": "binding result", "setting": "cross-linking", "result": "binds"}]}, {"binder": "S100A8(C42S), subunit of CP-Ser (natural protein, human, UniProt P05109 1-93, looked up) MLTELEKALNSIIDVYHKYSLIKGNFHAVYRDDLKKLLETESPQYIRKKGADVWFKELDINTDGAVNFQEFLILVIKMGVAAHKKSHEESHKE", "values": [{"measurement": "binding result", "setting": "[2]", "result": "binds"}]}]}
